Results from patent CN114516919A (SUZHOU BAIDAI MEDICAL SCIENCE AND TECH LIMITED COMPANY, dated 2022).

Molecular target: T1, 肾组织切片中的PLA2R1蛋白 (human, UniProt Q13018 21-1463)
T1 construct: whole, on cells
Assay: immunohistochemistry on FFPE kidney tissue sections, DAB

T1 sequence (Q13018 21-1463): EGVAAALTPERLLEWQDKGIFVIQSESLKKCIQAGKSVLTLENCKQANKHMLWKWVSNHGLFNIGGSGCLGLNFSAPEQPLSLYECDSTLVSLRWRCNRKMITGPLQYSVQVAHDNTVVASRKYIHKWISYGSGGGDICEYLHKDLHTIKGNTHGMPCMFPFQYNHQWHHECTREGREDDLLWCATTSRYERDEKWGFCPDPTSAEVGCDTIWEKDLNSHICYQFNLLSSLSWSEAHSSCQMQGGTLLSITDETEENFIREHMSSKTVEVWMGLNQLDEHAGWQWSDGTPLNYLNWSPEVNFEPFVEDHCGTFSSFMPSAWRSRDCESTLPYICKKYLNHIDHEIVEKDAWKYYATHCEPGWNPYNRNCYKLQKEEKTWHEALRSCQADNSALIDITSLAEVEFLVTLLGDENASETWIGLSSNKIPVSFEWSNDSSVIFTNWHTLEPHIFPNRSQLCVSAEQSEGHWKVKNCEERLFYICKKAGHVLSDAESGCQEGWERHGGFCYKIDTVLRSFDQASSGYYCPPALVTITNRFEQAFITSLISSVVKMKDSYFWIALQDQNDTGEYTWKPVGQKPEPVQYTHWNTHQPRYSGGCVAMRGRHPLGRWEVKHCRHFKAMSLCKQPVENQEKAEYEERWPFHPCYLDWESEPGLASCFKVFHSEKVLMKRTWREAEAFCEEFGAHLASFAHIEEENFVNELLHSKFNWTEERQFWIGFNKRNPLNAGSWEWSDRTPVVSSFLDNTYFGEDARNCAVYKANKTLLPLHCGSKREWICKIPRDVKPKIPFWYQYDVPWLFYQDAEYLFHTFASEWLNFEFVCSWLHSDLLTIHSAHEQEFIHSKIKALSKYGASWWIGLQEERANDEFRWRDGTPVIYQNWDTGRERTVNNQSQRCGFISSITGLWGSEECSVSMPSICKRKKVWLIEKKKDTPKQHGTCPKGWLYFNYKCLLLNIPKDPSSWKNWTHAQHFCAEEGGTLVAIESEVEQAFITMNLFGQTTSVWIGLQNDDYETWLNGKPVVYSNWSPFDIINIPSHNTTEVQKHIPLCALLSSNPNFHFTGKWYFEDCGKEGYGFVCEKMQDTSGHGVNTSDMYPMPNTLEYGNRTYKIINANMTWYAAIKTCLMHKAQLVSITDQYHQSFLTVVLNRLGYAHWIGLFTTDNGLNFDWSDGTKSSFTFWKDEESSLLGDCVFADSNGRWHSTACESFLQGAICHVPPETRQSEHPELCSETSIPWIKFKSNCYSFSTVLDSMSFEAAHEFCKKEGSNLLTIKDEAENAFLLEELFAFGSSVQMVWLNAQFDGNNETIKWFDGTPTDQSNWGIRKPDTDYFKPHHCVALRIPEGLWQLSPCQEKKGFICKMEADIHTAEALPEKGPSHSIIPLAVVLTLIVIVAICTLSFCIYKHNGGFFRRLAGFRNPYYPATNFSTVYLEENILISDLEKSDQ

B1: 54D11抗PLA2R重组兔单克隆抗体 (antibody, V domains shown)
VH: QSVEESGGRLVTPGTPLTLTCTVSGIDLSSHGMGWVRQAPGKGLEWIGYINTGGSAYYASWAKGRFTISRTSTTVDLKMTSLTTEDTATYFCARGDPDYTSGFPIWGPGTLVTVSS
VL: AFEMTQTPASVEVAVGGTVTIKCQASESISSWLAWYQQKPGQPPKLLIYRASTLASGVPSRFSGSGSGTQFTLTISGVECADAATYYCQQGYSSHNIDNIFGGGTEVVVR
notes: also called 54D11抗PLA2R单克隆抗体; 54D11克隆的PLA2R重组兔单克隆抗体
**Q.** Does B1 bind?
**A.** binds
